In this data set the target is T1, CzrA (Bacillus subtilis, UniProt O31844 1-107).
T1 sequence: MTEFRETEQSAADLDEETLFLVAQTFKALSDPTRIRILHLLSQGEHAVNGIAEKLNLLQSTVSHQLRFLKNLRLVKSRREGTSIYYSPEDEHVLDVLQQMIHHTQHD
The experiment in a line: fluorescence anisotropy. Background: Polarisation of emitted light reports the rotation of a fluorescent probe.

B1: cadA promoter operator 28 bp (dsDNA)
DNA 1: TTATATATGAGTATATGCTCATATATAT
DNA 2: ATATATATGAGCATATACTCATATATAA
On to B1, for which the binding result is on record as “binds”.

The values above are taken from publication PMC4227968.
